Measured values taken from publication PMC10786891, “Massively parallel profiling of RNA-targeting CRISPR-Cas13d”.

T1: EsCas13d, nuclease-dead (Eubacterium siraeum, UniProt B0MS50, R295A;H300A;R849A;H854A)
T1 sequence: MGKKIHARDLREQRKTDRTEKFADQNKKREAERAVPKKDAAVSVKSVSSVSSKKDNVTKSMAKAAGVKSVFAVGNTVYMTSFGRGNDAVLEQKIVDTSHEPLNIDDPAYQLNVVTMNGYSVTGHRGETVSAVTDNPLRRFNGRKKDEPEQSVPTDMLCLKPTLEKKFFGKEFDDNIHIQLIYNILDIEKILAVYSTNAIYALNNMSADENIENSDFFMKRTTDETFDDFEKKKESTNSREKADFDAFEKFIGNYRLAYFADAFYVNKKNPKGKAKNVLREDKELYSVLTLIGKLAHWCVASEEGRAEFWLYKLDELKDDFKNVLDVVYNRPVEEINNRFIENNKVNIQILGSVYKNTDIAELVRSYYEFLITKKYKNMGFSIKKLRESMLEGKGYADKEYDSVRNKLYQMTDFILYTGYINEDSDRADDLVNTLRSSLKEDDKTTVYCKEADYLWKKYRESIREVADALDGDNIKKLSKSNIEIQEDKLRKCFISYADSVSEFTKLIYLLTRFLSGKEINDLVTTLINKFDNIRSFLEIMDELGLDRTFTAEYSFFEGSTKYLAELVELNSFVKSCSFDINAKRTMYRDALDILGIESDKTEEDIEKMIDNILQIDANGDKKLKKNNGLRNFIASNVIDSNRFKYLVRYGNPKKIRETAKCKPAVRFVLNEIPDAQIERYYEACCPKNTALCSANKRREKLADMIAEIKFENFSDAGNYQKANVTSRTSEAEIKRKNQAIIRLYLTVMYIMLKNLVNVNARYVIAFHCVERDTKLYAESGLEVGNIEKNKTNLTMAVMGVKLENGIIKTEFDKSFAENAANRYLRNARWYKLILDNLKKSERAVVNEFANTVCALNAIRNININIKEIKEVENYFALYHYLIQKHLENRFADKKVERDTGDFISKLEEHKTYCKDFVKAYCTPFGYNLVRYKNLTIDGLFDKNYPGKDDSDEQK

B1: target 1 C4A,A14U (mixed)
RNA 1: CACCCGUGCAAAAAUGCAGGGGUCUAAAACUGAGCGGAUAACCUCUCUAUGG
RNA 2: GGGAAUGGAUCCACAUCUACGAAUUCGUACCAUAGAGUGGUUAUCCGAUCACCGAGAUCGGAAGAGCACACGU
B2: target 1 A9U,C21A (mixed)
RNA 1: CACCCGUGCAAAAAUGCAGGGGUCUAAAACUGAGCGGAUAACCUCUCUAUGG
RNA 2: GGGAAUGGAUCCACAUCUACGAAUUCGUACAAUAGAGAGGUUUUCCGCUCACCGAGAUCGGAAGAGCACACGU
B3: target 1 A16U,G17C (mixed)
RNA 1: CACCCGUGCAAAAAUGCAGGGGUCUAAAACUGAGCGGAUAACCUCUCUAUGG
RNA 2: GGGAAUGGAUCCACAUCUACGAAUUCGUACCAUACUGAGGUUAUCCGCUCACCGAGAUCGGAAGAGCACACGU
B4: target 1 insC 3' of 12,insU 3' of 1 (mixed)
RNA 1: CACCCGUGCAAAAAUGCAGGGGUCUAAAACUGAGCGGAUAACCUCUCUAUGG
RNA 2: GGGAAUGGAUCCACAUCUACGAAUUCGUACCAUAGAGAGGCUUAUCCGCUCAUCCGAGAUCGGAAGAGCACACGU
B5: target 1 U8G,A18U (mixed)
RNA 1: CACCCGUGCAAAAAUGCAGGGGUCUAAAACUGAGCGGAUAACCUCUCUAUGG
RNA 2: GGGAAUGGAUCCACAUCUACGAAUUCGUACCAUUGAGAGGUUAGCCGCUCACCGAGAUCGGAAGAGCACACGU
B6: target 1 insA 3' of 19,insU 3' of 1 (mixed)
RNA 1: CACCCGUGCAAAAAUGCAGGGGUCUAAAACUGAGCGGAUAACCUCUCUAUGG
RNA 2: GGGAAUGGAUCCACAUCUACGAAUUCGUACCAUAAGAGAGGUUAUCCGCUCAUCCGAGAUCGGAAGAGCACACGU
B7: target 1 insC 3' of 20,insA 3' of 8 (mixed)
RNA 1: CACCCGUGCAAAAAUGCAGGGGUCUAAAACUGAGCGGAUAACCUCUCUAUGG
RNA 2: GGGAAUGGAUCCACAUCUACGAAUUCGUACCACUAGAGAGGUUAUACCGCUCACCGAGAUCGGAAGAGCACACGU
B8: target 1 insU 3' of 9,insU 3' of 7 (mixed)
RNA 1: CACCCGUGCAAAAAUGCAGGGGUCUAAAACUGAGCGGAUAACCUCUCUAUGG
RNA 2: GGGAAUGGAUCCACAUCUACGAAUUCGUACCAUAGAGAGGUUAUUCUCGCUCACCGAGAUCGGAAGAGCACACGU
B9: target 1 A14G,C22A (mixed)
RNA 1: CACCCGUGCAAAAAUGCAGGGGUCUAAAACUGAGCGGAUAACCUCUCUAUGG
RNA 2: GGGAAUGGAUCCACAUCUACGAAUUCGUAACAUAGAGGGGUUAUCCGCUCACCGAGAUCGGAAGAGCACACGU
B10: target 1 insG 3' of 22,insC 3' of 3 (mixed)
RNA 1: CACCCGUGCAAAAAUGCAGGGGUCUAAAACUGAGCGGAUAACCUCUCUAUGG
RNA 2: GGGAAUGGAUCCACAUCUACGAAUUCGUACGCAUAGAGAGGUUAUCCGCUCCACCGAGAUCGGAAGAGCACACGU
B11: target 1 insC 3' of 22,insG 3' of 2 (mixed)
RNA 1: CACCCGUGCAAAAAUGCAGGGGUCUAAAACUGAGCGGAUAACCUCUCUAUGG
RNA 2: GGGAAUGGAUCCACAUCUACGAAUUCGUACCCAUAGAGAGGUUAUCCGCUCGACCGAGAUCGGAAGAGCACACGU
B12: target 1 U3A,A16C (mixed)
RNA 1: CACCCGUGCAAAAAUGCAGGGGUCUAAAACUGAGCGGAUAACCUCUCUAUGG
RNA 2: GGGAAUGGAUCCACAUCUACGAAUUCGUACCAUAGCGAGGUUAUCCGCACACCGAGAUCGGAAGAGCACACGU
B13: target 1 insU 3' of 20,insC 3' of 17 (mixed)
RNA 1: CACCCGUGCAAAAAUGCAGGGGUCUAAAACUGAGCGGAUAACCUCUCUAUGG
RNA 2: GGGAAUGGAUCCACAUCUACGAAUUCGUACCAUUAGCAGAGGUUAUCCGCUCACCGAGAUCGGAAGAGCACACGU
B14: target 1 U11A,A18G (mixed)
RNA 1: CACCCGUGCAAAAAUGCAGGGGUCUAAAACUGAGCGGAUAACCUCUCUAUGG
RNA 2: GGGAAUGGAUCCACAUCUACGAAUUCGUACCAUGGAGAGGAUAUCCGCUCACCGAGAUCGGAAGAGCACACGU
B15: target 1 insU 3' of 18,insG 3' of 10 (mixed)
RNA 1: CACCCGUGCAAAAAUGCAGGGGUCUAAAACUGAGCGGAUAACCUCUCUAUGG
RNA 2: GGGAAUGGAUCCACAUCUACGAAUUCGUACCAUAUGAGAGGUUGAUCCGCUCACCGAGAUCGGAAGAGCACACGU
B16: target 1 insA 3' of 11,insU 3' of 9 (mixed)
RNA 1: CACCCGUGCAAAAAUGCAGGGGUCUAAAACUGAGCGGAUAACCUCUCUAUGG
RNA 2: GGGAAUGGAUCCACAUCUACGAAUUCGUACCAUAGAGAGGUAUAUUCCGCUCACCGAGAUCGGAAGAGCACACGU
B17: target 1 insC 3' of 11,insA 3' of 6 (mixed)
RNA 1: CACCCGUGCAAAAAUGCAGGGGUCUAAAACUGAGCGGAUAACCUCUCUAUGG
RNA 2: GGGAAUGGAUCCACAUCUACGAAUUCGUACCAUAGAGAGGUCUAUCCAGCUCACCGAGAUCGGAAGAGCACACGU
B18: target 1 del1,del5 (mixed)
RNA 1: CACCCGUGCAAAAAUGCAGGGGUCUAAAACUGAGCGGAUAACCUCUCUAUGG
RNA 2: GGGAAUGGAUCCACAUCUACGAAUUCGUACCAUAGAGAGGUUAUCCCUCCCGAGAUCGGAAGAGCACACGU
B19: target 1 insU 3' of 18,insA 3' of 7 (mixed)
RNA 1: CACCCGUGCAAAAAUGCAGGGGUCUAAAACUGAGCGGAUAACCUCUCUAUGG
RNA 2: GGGAAUGGAUCCACAUCUACGAAUUCGUACCAUAUGAGAGGUUAUCACGCUCACCGAGAUCGGAAGAGCACACGU
B20: target 1 insA 3' of 17,insA 3' of 7 (mixed)
RNA 1: CACCCGUGCAAAAAUGCAGGGGUCUAAAACUGAGCGGAUAACCUCUCUAUGG
RNA 2: GGGAAUGGAUCCACAUCUACGAAUUCGUACCAUAGAAGAGGUUAUCACGCUCACCGAGAUCGGAAGAGCACACGU
B21: target 1 insC 3' of 18,insA 3' of 12 (mixed)
RNA 1: CACCCGUGCAAAAAUGCAGGGGUCUAAAACUGAGCGGAUAACCUCUCUAUGG
RNA 2: GGGAAUGGAUCCACAUCUACGAAUUCGUACCAUACGAGAGGAUUAUCCGCUCACCGAGAUCGGAAGAGCACACGU
B22: target 1 U8A,G13A (mixed)
RNA 1: CACCCGUGCAAAAAUGCAGGGGUCUAAAACUGAGCGGAUAACCUCUCUAUGG
RNA 2: GGGAAUGGAUCCACAUCUACGAAUUCGUACCAUAGAGAAGUUAACCGCUCACCGAGAUCGGAAGAGCACACGU
B23: target 1 insC 3' of 13,insG 3' of 6 (mixed)
RNA 1: CACCCGUGCAAAAAUGCAGGGGUCUAAAACUGAGCGGAUAACCUCUCUAUGG
RNA 2: GGGAAUGGAUCCACAUCUACGAAUUCGUACCAUAGAGAGCGUUAUCCGGCUCACCGAGAUCGGAAGAGCACACGU
B24: target 1 C4G,U19G (mixed)
RNA 1: CACCCGUGCAAAAAUGCAGGGGUCUAAAACUGAGCGGAUAACCUCUCUAUGG
RNA 2: GGGAAUGGAUCCACAUCUACGAAUUCGUACCAGAGAGAGGUUAUCCGGUCACCGAGAUCGGAAGAGCACACGU

Molecular target: T1, EsCas13d, nuclease-dead
Assay: crRNA (strand 1, pre-loaded); Mg2+; 40 mM Tris-HCl pH 7.5, 150 mM NaCl, 6 mM MgCl2, 1 mM DTT, 0.1% Tween-20, 0.2 mg/ml BSA; 25 C; 10 min per concentration, then washed
Conditions: tags: His6-TwinStrep-SUMO cleaved; N-terminal SNAP kept (SNAP-Surface 488); label: 3' end held by stalled T7 RNA polymerase

Question: With B1 as the binder, how does the Kd read?
Answer: ~60 nM

Question: Which Kd does the source give for B2 here?
Answer: 35.8 ± 2.3 nM

Question: For B3, which Kd is on record?
Answer: 87 ± 23 nM

Question: With B4 as the binder, how does the Kd read?
Answer: 12 ± 1.1 nM

Question: B5 was tested. Which Kd did it give?
Answer: 80 ± 19 nM

Question: Which Kd does the source give for B6 here?
Answer: 20 ± 1.7 nM

Question: How did the Kd turn out when B7 was run?
Answer: 9.6 ± 0.5 nM

Question: How did the Kd turn out when B8 was run?
Answer: 25.4 ± 1.3 nM

Question: With B9 as the binder, how does the Kd read?
Answer: 40 ± 4 nM

Question: With B10 as the binder, how does the Kd read?
Answer: 31.2 ± 3.4 nM

Question: For B11, which Kd is on record?
Answer: 21.1 ± 3.2 nM

Question: B12 was tested. Which Kd did it give?
Answer: 76 ± 7 nM

Question: For B13, which Kd is on record?
Answer: 44 ± 8 nM

Question: B14 was tested. Which Kd did it give?
Answer: 80 ± 40 nM

Question: For B15, which Kd is on record?
Answer: 68 ± 22 nM

Question: For B16, which Kd is on record?
Answer: 27.8 ± 2.2 nM

Question: With B17 as the binder, how does the Kd read?
Answer: 47 ± 14 nM

Question: How did the Kd turn out when B18 was run?
Answer: 20.4 ± 1.2 nM

Question: Which Kd does the source give for B19 here?
Answer: 23.6 ± 2.6 nM

Question: Which Kd does the source give for B20 here?
Answer: 10.4 ± 0.5 nM

Question: For B21, which Kd is on record?
Answer: 80 ± 22 nM

Question: B22 was tested. Which Kd did it give?
Answer: 15 ± 0.7 nM

Question: For B23, which Kd is on record?
Answer: 14.6 ± 1.6 nM

Question: With B24 as the binder, how does the Kd read?
Answer: 100 ± 50 nM
